# Assay: yeast display, Sf9 membrane polyspecificity reagent, FACS + sequencing; frameworks hold sequencing errors
# Summary of the method: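 Synthetic nanobody libraries on Saccharomyces cerevisiae BJ5465 were galactose-induced for 36–48 hours, stained 1 hour at 4 °C with 10% biotinylated, detergent-solubilized Sf9 membrane reagent and enriched on streptavidin microbeads. FACS then separated cells into low and high (top ~1%) gates by anti-HA (expression) and streptavidin (reagent binding) fluorescence. Genes were colony-PCR amplified, MiSeq 2 × 250 sequenced and CDR-length filtered. A clone's polyreactivity label is that of its gate of origin.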
row,Sequence,polyreactivity (PSR sort gate)
1,QVQLVESGGGLVQAGGSLRLSCAASGSIFWTYAMGWYRQAPGKERELVAAITTGGSTYYADSVKGRFTISRDNAKNTVYLQMNSLKPEDTAVYYCAVDHLTRSGDGEYWGQGTQVTVSS,high polyreactivity
2,QVHLAESAAGLDQAGGRLRLSCAAYGIIFYYYAMGWYRQAPGKERELVAAISGTGGRTYYADSVKGRFTISRDNAKNTVYLQMNSLKPEDTAVYYCNADDTPVPSIRFDSWGQGTQVTVSS,low polyreactivity
3,QVQLVESGGGIVQAGGSLRLSCAASGLTICDYAMGWYRQAPGKERELVAAISSSGGRTYYADSVKGRFTISRDNAKNTVYLQMNSLKPEDTAVYYCAAQSKYYQYYSWGQGTQVTVSS,high polyreactivity
4,QVQLVESGGGLVQAGGSLRLSCAASGSIFAFNAMGWYRQAPGKERELVAAITSGGNTYYADSVKGRFTISRDNAKNTVYLQMNSLKPEDTAVYYWATVFSVQGWYFGMNYWGQGTQVTVSS,low polyreactivity
5,QVQLVESGGGLVQAGGSLRLSCAASGSTFPSYAMGWYRQAPGKERELVAAISGSGTSTYYADSVKGRFTISRDNAKNTVYLQMNSRKPEDTAVYYCRAVWLSTYLGWGRDYWGQGTQVTVSS,high polyreactivity
6,QVQLVESGGGLVQAGGSLRLSCAASGRTFRYNDRGWYRQAPGKERELVASISRISGSTYYADSVKGRFTISRDNAKNTVYLQMNSLKAEVTAVFYCAATVKLKQYPYFGFGYWGQGTQVTVSS,high polyreactivity
7,QVQLVESGGGLVQAGGSLRLSCAASGRIFGANAMGWYRQAPGKERELVAVITGGGGTYYADSVKGRFTISRDNSKNTVYLQINSLKPEDTAVYYCDWPRYYYTYPSHPMDYWGQGTQVTVSS,low polyreactivity
8,QVQLEESGGGLDQAGGSLRLSCAASGSTFYKNAMGWYRQAPGKERELVARISGRGGSTDYADSVKGRFTISRDNAKNTVYLQMNSLKPDDTAVYYCNAGKYSSSDALYDYWGQGTQVTVSS,high polyreactivity
9,QVQLVESGGGLVQAGGRLRLSCAASGYIFSYYAMAWYRQAPGKERELVASITSSGGSTYYADSVKGRFTISRDNAKNTVYLQMNSLKPEVTAVSYCAAYSLYGYDYWGQGTQVTVSS,low polyreactivity
10,QVQLVDSGGGLVQAGGSLRLSCAASGRIFEGDAMGWYIQAPGKESDLVASISYDGGSTYYADSVKGRFTISRDNENITVELQMNSLKPEDTAVYYCAAVYRRRSYSFYYWGQGTQVTVSS,high polyreactivity
11,QVQLVESGGGLVQAGGSLRLSCAASGRIFVGYAMGWYRQAPGKERELVATITGSGGRTYYADSVKGRFTISRDNAKNTVYLQMNSLKPEDTAVFYCATRPPLFYYDDHDDDDYWGQGTQVTVSS,low polyreactivity
12,QVQLVESGGGLVQAGGSLSLSCAASGRIFSTYAMGWYRQAPGKERELVAAITSRGTSTYYADSVKGRFTISRDNAKNTVYLQINSLKPEDSAVYYCAARRERWSSSIVGYWGQGTQVTVSS,high polyreactivity
13,QVLLVESGGGLVQAGGSLRLSCAASGITFGRNTMGWYRQAPGKDRELVAAIDSGGNTYADSVKGRFTISRDNAKNTVSLQMNSRKPEDTAVDYCAVDGGEFSSYGYWGQGTQVTVSS,low polyreactivity
14,QVQLVESGGGLVQAGGSLRLSCTASGRTLYNYTMGWYRQAPGKERELVAAISRGGGSTYYADSVKGRFTISRDNAKNTVYLQMNSLKQEDTAVYYCATDQTYPYCGGGDYWGQGTQVTVSS,low polyreactivity
15,QVQLVESGGGLVQAGGTLRLSCAASGLIFKKYTMGWYRQAPGKERELVASISKSGGSTYYADSVKGRFTISRDNAKNTVYLQMISLKPEESAVYYCNRVTHYIRFDYWGQGTQVTVSS,low polyreactivity
16,QVQLVESGGGLVQAGGSLRLICAASGRIFRPYAMGWYRQAPGKERELVAAISSSGGSTYYADSVKGRFTISRDNAKNTVYLQMNSLKPEDTAVYYCATYFARGRRYDYWGQGTQVTVSS,high polyreactivity
17,QVQLVESGGGLVQAGGSLRLSCAASGRIFAVYAMGWYRQAPGKERELVAAIRWSGVRTYYADSVTGRFTISRDTAKKTVYLQMNSLKPEDTAVYYCAADYSGQYYSPVSYLYDYWGQGTQVTVSS,high polyreactivity
18,QVQLVESGGGLVQAGGSLRLSCAASGFTFGGNVMGWYSQAPGKERELVAAISGAGSKYYADSVKGRFTISRDNAKNTVNLQMNSLKPEDTAVNYCAADDVARYLSGYDYWGQGTQVTVSS,low polyreactivity
19,QVQLVESGGGLVQAGGSLRLSCAASGSTFKQYAMGWYRQAPGKERELVAAISSSGSTYYADSVKGRFTISRDNAKNTVYLQMNSLKPEDTAVYYCARSRYLWYTVPPKYGYWGQGTQVTVSS,high polyreactivity
20,QFQLVESGGGLLQAGGSLRLSCADSGFIFCEYAMGWYRQAPGKERELVAAITWSGGRTYYADSVKGRFTISRDNAKNTVYLQMNSLKTEDTAVYYCSAYGSFWYAGFGYWGQGTQVTVSS,low polyreactivity
21,QVQLVESGGGLFQAGGSLRLSCAASGGTFDWYTMGWYRQAPGKERELVADITSGGSTYYADSVKGRFTISRDNAKNTVYLQMNSLKPEDTALYYCNKRDKVTYSYDYWGQGTQVTVSS,high polyreactivity
22,QVQLVESGGGLVQAGGSLRLSCAASGITFDNYAMGWYRQAPGKEWELVAAISSDDNTTYADSVKGRFTISRDNAKNTVYLQMNSLKPEDTAVYYCAADSRIYGYWEYDYWGQGTQVTVST,low polyreactivity

row,Sequence,polyreactivity (PSR sort gate)
1,QVQLVESGGGLVQAGGSLRLSCAASGFTFRPYAMGWYRQAPGKERELVAAISTSGATTYYADSVKGRFTISRDNAKITVYLQMNSLKPEDTAVYYCNKVYWHHPWEYGYWGQGTQVTVSS,high polyreactivity
2,QVQLVESGGGLVQAGGSLRLSCAASGITFYGYAMGWYRQAPGKERELVARISSGGTTKYADSVKGRFTISRDNAKNTVYLQMNSLKPEDTAGYYCAVGGSWWYYGFYYWGQGTQVSVSS,high polyreactivity
3,QVQLVESGGGLVQAGGSLRLSCAASGSTFQYYAMGWYRQAPGKERELFAVITGAGGTNYADSVKGRFTISRDNAKNTVYLQMNSLKPEDTAVYYCAARSPGTRWGDYDYWGQGTQVTVSS,low polyreactivity
4,QVQLVESGGGLVQAGGSLRLSCAASGRTFYYYAMGWYRQAPGKERELVASITFSGGRTYYADSVKGRFTISRDNAKNTVYLQMNSLKPEDTAVYYFARPYYGRYYPNYGVTGVDYWGQGTQVTVSS,high polyreactivity
5,QVQLVESGGGLVQAGGSLRLSCAASGSTFKRYAMGWYRQAHGKERELVAAISRRGGSTYYADSVKGRFTISRDNAKNTVYLQMNSLKPEDTAVYYCAARGTGNIYDYWGQGTQVTVSS,high polyreactivity
6,QVQLVESGGGLVQAGGSLRLSCAASGSTFYAYAMGWYRQAPGKERELVAVITSSGSTYYADSVKGRFTISRDNAKNTVYLQMNSLKPEDTAVYYCARVSYRGYGYWGQGTQVTVSS,high polyreactivity
7,QVQLVESGGGLVQAGGSLRLSCAASGSTFRVYAMGWYRQAPGKERELVATISWGGGRTYYADSVKGRFTISRDNAKNTVYLQMNSLKPEDTAVYYCAADQRWTTDQPTAGDYWGQGTQVTVSS,low polyreactivity
8,QVQLVESGGGLVQAGGSLRLSCAASGSIFGLYGMGWYRQAPGKERELVAAISSGGTTNYADSVKGRFTISRDNAKNTVYLQMNSLKPEDTAVYYCAARYSRGAYIYYGWYGYGYWGQGTQVTVSS,low polyreactivity
9,QVQLVESGGGLVQAGGSLRLSCAASGYILDRNAMGWYIQAPGKEREFVAVISWGGTRTYYADSVKGRFTISRDNAKNTVYLQMNSLKPEDTAVYYCARYPYYYGYAGRYDYWGQGTQVTVSS,high polyreactivity
10,QVQLVESGGGLVQAGGSLRLSCAASGSIFLAYAMGWYRQAPGKEREFVAAISFSDGSTYYADSVKGRFTISRDNAKNTVYLQMNSLKPEDTAVYYCNKGASPVDYDYWGQGTQVTVSS,low polyreactivity
11,QVQLVESGGGLVQAGGSLRLSCAASGSIFAFNAMGWYRQAPGKERELVAGITISDSTNYADSVKGRFTISRDNAKNTVYLQMNSLKPEDTAVYYCNADYEQYVYWYWFIKYDYWGQGTQVTVSS,low polyreactivity
12,QVQLVESGGGLVQAGGSHRLSCAASGITFPYYAMGCYRQAPVKERELVAAISSSGGSTYYADSVKGRFTISRDNAKNTVYLQMNSLKPEDTAVYYCNKRYVVYPGNYWRYDYWGQGTQVTVSS,high polyreactivity
13,QVQLVESGGGLVQAGGSLRLSCAASGRTFYAYTMGWYRTAPGKERELVAAITRRGGSTYYADSVKGRFTISRDNAKNTVYLQMNSLKPEDTAVYYCAASYSHRNYGLTYDYWGQGTQVTVSS,high polyreactivity
14,QVQLVESGGGLVPAGGSLRLSCAASGRTFGYYAMGWYRPAPGKERELVAAITSNGGSTYYADSVKGRFTISRDNAKNTVYLQMNSLKPEDTAVYYCNTGRRNRLYDYDYWGQGTQVTVSS,high polyreactivity
15,QVQLVESGGGLVQAGGSLRLSCAASGGTSYAYTMGWYRQAPGKERELVAAISGSTGSTYYADSVKGRFTISRDNAKNTVYLQMNSLKPEDTAVYYCALLVGHNYWGQGTQVTVSS,low polyreactivity
16,QVQLVESGGGLVQAGGSLRLSCAASGRTIRWNDMGWYRQAPGKERELVAAITSRGGSTYYADSVKGRFTISRDNAMNTVYFQMNSLKPEDTAVYYCAKQPKPPPVTGYDYWGQGSQVTVSS,high polyreactivity
17,QVQLVESGGGLVQAGGSLRLSCAASGSTIVRYAMGWYRQAPGKERELVASISSGGTTNYADSVNGRFTISRDNAKNTVYLQMNSLKPEDTAVYFCNGTWAYRGHGYWGQGTQVTVSS,low polyreactivity
18,QVQLVVSGGGLVQAGGSLRLSCAASGSIFVPYAMGWYRQAPGKEREFVAAITRSSGSTYYADSVKGRFTISRDNAKNTVYLQMNSLKPEDTAVYYCAADFLLEFDYWGQGTQVTVSS,low polyreactivity
19,QVLLQESGAGLVQAGGSLRLSCAASGTISTDIRMGWYRLAPGKEREFVASIDGCSTTYYADSVKGRFTISRDNAKNSVYLQLNSLKPEDTAMYYCAAREDTEFYLYYWGQGNQVTVSS,low polyreactivity
20,QVQHVESGGGLVQAGGSLRLICAASGSTFGYNAMGWYRHAPGKERELVARITSSGGATYYADSVKWRFTISRDNAKHTVYLLKNSLKPEDTAVYYCAAGYPYRAVYRYYYWGQGTQVTVSS,high polyreactivity
21,QVQLVESGRGLVQAGGSLRLSCAASGSTFDGYAMGWYRQAPGKERELVAAINWGGGSTRYADSVKGRFTISRDNAKNTVYLQMNSLKPEDTAVYYCAKYTSSRFDAFNYWGQGTQVTVSS,high polyreactivity
